Reference: WO2011147762A2

What was measured:
[1] = target: ED-B fibronectin antigen protein (recombinant), bound to CNBr activated sepharose 4B (UniProt P02751); assay: ED-B sepharose column, % of total radioactivity bound; Study A; sodium thiosulfate 10 mg/mL; day 7
[2] = target: ED-B fibronectin antigen protein (recombinant), bound to CNBr activated sepharose 4B (UniProt P02751); assay: ED-B sepharose column, % of total radioactivity bound; Study A; inositol 10 mg/mL; day 5
[3] = target: ED-B fibronectin antigen protein (recombinant), bound to CNBr activated sepharose 4B (UniProt P02751); assay: ED-B sepharose column, % of total radioactivity bound; Study A; maltose 10 mg/mL; day 5
[4] = target: ED-B fibronectin antigen protein (recombinant), bound to CNBr activated sepharose 4B (UniProt P02751); assay: ED-B sepharose column, % of total radioactivity bound; Study B3; thioglycerol 10 mg/mL; day 3
[5] = target: ED-B fibronectin antigen protein (recombinant), bound to CNBr activated sepharose 4B (UniProt P02751); assay: ED-B sepharose column, % of total radioactivity bound; Study B3; no-excipient control (PBS); day 0
[6] = target: ED-B fibronectin antigen protein (recombinant), bound to CNBr activated sepharose 4B (UniProt P02751); assay: ED-B sepharose column, % of total radioactivity bound; Study A; no-excipient control (saline); day 1
[7] = target: ED-B fibronectin antigen protein (recombinant), bound to CNBr activated sepharose 4B (UniProt P02751); assay: ED-B sepharose column, % of total radioactivity bound; Study A; methionine 5 mg/mL; day 0
[8] = target: ED-B fibronectin antigen protein (recombinant), bound to CNBr activated sepharose 4B (UniProt P02751); assay: ED-B sepharose column, % of total radioactivity bound; Study A; sodium thiosulfate 50 mg/mL; day 7
[9] = target: ED-B fibronectin antigen protein (recombinant), bound to CNBr activated sepharose 4B (UniProt P02751); assay: ED-B sepharose column, % of total radioactivity bound; Study A; sodium thiosulfate 5 mg/mL; day 3
[10] = target: ED-B fibronectin antigen protein (recombinant), bound to CNBr activated sepharose 4B (UniProt P02751); assay: ED-B sepharose column, % of total radioactivity bound; Study A; trolox 5 mg/mL; day 0
[11] = target: ED-B fibronectin antigen protein (recombinant), bound to CNBr activated sepharose 4B (UniProt P02751); assay: ED-B sepharose column, % of total radioactivity bound; Study A; trolox 5 mg/mL; day 7
[12] = target: ED-B fibronectin antigen protein (recombinant), bound to CNBr activated sepharose 4B (UniProt P02751); assay: ED-B sepharose column, % of total radioactivity bound; Study A; trolox 5 mg/mL; day 5
[13] = target: ED-B fibronectin antigen protein (recombinant), bound to CNBr activated sepharose 4B (UniProt P02751); assay: ED-B sepharose column, % of total radioactivity bound; Study A; methionine 25 mg/mL; day 5
[14] = target: ED-B fibronectin antigen protein (recombinant), bound to CNBr activated sepharose 4B (UniProt P02751); assay: ED-B sepharose column, % of total radioactivity bound; Study A; sodium thiosulfate 10 mg/mL; day 3
[15] = target: ED-B fibronectin antigen protein (recombinant), bound to CNBr activated sepharose 4B (UniProt P02751); assay: ED-B sepharose column, % of total radioactivity bound; Study A; methionine 10 mg/mL; day 7
[16] = target: ED-B fibronectin antigen protein (recombinant), bound to CNBr activated sepharose 4B (UniProt P02751); assay: ED-B sepharose column, % of total radioactivity bound; Study B3; no-excipient control (PBS); day 3
[17] = target: ED-B fibronectin antigen protein (recombinant), bound to CNBr activated sepharose 4B (UniProt P02751); assay: ED-B sepharose column, % of total radioactivity bound; Study B3; human serum albumin 10 mg/mL; day 3
[18] = target: ED-B fibronectin antigen protein (recombinant), bound to CNBr activated sepharose 4B (UniProt P02751); assay: ED-B sepharose column, % of total radioactivity bound; Study A; maltose 25 mg/mL; day 7
[19] = target: ED-B fibronectin antigen protein (recombinant), bound to CNBr activated sepharose 4B (UniProt P02751); assay: ED-B sepharose column, % of total radioactivity bound; Study B3; ascorbic acid 25 mg/mL; day 0
[20] = target: ED-B fibronectin antigen protein (recombinant), bound to CNBr activated sepharose 4B (UniProt P02751); assay: ED-B sepharose column, % of total radioactivity bound; Study A; sodium thiosulfate 50 mg/mL; day 5
[21] = target: ED-B fibronectin antigen protein (recombinant), bound to CNBr activated sepharose 4B (UniProt P02751); assay: ED-B sepharose column, % of total radioactivity bound; Study A; sodium thiosulfate 10 mg/mL; day 5
[22] = target: ED-B fibronectin antigen protein (recombinant), bound to CNBr activated sepharose 4B (UniProt P02751); assay: ED-B sepharose column, % of total radioactivity bound; Study B3; human serum albumin 10 mg/mL; day 7
[23] = target: ED-B fibronectin antigen protein (recombinant), bound to CNBr activated sepharose 4B (UniProt P02751); assay: ED-B sepharose column, % of total radioactivity bound; Study A; maltose 5 mg/mL; day 7
[24] = target: ED-B fibronectin antigen protein (recombinant), bound to CNBr activated sepharose 4B (UniProt P02751); assay: ED-B sepharose column, % of total radioactivity bound; Study A; inositol 5 mg/mL; day 1
[25] = target: ED-B fibronectin antigen protein (recombinant), bound to CNBr activated sepharose 4B (UniProt P02751); assay: ED-B sepharose column, % of total radioactivity bound; Study A; sodium thiosulfate 10 mg/mL; day 1
[26] = target: ED-B fibronectin antigen protein (recombinant), bound to CNBr activated sepharose 4B (UniProt P02751); assay: ED-B sepharose column, % of total radioactivity bound; Study A; no-excipient control (saline); day 0
[27] = target: ED-B fibronectin antigen protein (recombinant), bound to CNBr activated sepharose 4B (UniProt P02751); assay: ED-B sepharose column, % of total radioactivity bound; Study A; maltose 10 mg/mL; day 0
[28] = target: ED-B fibronectin antigen protein (recombinant), bound to CNBr activated sepharose 4B (UniProt P02751); assay: ED-B sepharose column, % of total radioactivity bound; Study A; maltose 50 mg/mL; day 0

131I L19-SIP (radioiodinated L19 SIP homodimer), sequence (chain): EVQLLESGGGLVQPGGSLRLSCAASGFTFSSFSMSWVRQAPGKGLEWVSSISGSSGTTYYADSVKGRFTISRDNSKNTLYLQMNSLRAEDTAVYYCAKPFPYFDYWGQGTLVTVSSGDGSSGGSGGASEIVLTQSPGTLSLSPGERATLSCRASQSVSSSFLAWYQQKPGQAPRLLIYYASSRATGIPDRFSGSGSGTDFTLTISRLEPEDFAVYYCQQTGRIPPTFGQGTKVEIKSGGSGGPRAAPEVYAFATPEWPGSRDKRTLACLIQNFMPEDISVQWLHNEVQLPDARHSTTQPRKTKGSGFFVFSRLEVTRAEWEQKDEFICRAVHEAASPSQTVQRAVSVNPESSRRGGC
131I L19-SIP (radioiodinated L19 SIP homodimer), sequence (chain): as above
UniProt P02751, sequence (P02751 1266-1356 limits assumed): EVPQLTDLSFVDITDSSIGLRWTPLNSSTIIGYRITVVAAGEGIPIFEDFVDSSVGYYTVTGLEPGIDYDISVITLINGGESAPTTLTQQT

131I L19-SIP (radioiodinated L19 SIP homodimer)
Immunoreactivity (%) [1]: 78%
Immunoreactivity (%) [2]: 58.9%
Immunoreactivity (%) [3]: 57.2%
Immunoreactivity (IR) (%) [4]: 59.5%
Immunoreactivity (IR) (%) [5]: 74.6%
Immunoreactivity (%) [6]: 81.6%
Immunoreactivity (%) [7]: 96.7%
Immunoreactivity (%) [8]: 88.2%
Immunoreactivity (%) [9]: 83.5%
Immunoreactivity (%) [10]: 94.6%
Immunoreactivity (%) [11]: 52.9%
Immunoreactivity (%) [12]: 65.8%
Immunoreactivity (%) [13]: 48.6%
Immunoreactivity (%) [14]: 88.5%
Immunoreactivity (%) [15]: 54.8%
Immunoreactivity (IR) (%) [16]: 68.3%
Immunoreactivity (IR) (%) [17]: 60.6%
Immunoreactivity (%) [18]: 53.6%
Immunoreactivity (IR) (%) [19]: 74.1%
Immunoreactivity (%) [20]: 91.5%
Immunoreactivity (%) [21]: 81.3%
Immunoreactivity (IR) (%) [22]: 39.8%
Immunoreactivity (%) [23]: 50%
Immunoreactivity (%) [24]: 87.1%
Immunoreactivity (%) [25]: 94.7%
Immunoreactivity (%) [26]: 94.3%
Immunoreactivity (%) [27]: 92.8%
Immunoreactivity (%) [28]: 89.7%
